Article PMC6763467, “Structural insight into glucose repression of the mannitol operon” (Scientific Reports, 2019)

B2: E. coli MtlR fused with His6-tag (ecHisMtlR), wild type (natural protein)
chain: MVDQAQDTLRPNNRLSDMQATMEQTQAFENRVLERLNAGKTVRSFLITAVELLTEAVNLLVLQVFRKDDYAVKYAVEPLLDGDGPLGDLSVRLKLIYGLGVINRQEYEDAELLMALREELNHDGNEYAFTDDEILGPFGELHCVAALPPPPQFEPADSSLYAMQIQRYQQAVRSTMVLSLTELISKISLKKAFQK
notes: Mannitol operon repressor MtlR of E. coli (cloned from genomic DNA of MG1655, K-12); ecHisMtlR is about 23 kDa with the tag; probably the whole protein (about 23 kDa with tag); Homodimer by SEC-MALS; also called wild-type His-MtlR; ecMtlR

Assays:
[1] = target: B2; assay: SEC; gel filtration chromatography of purified MtlR and HPr from E. coli and V. vulnificus (Supplementary Fig. 4); conditions: both partners purified
His-MtlR(E108S) [2] = target: T1, His-MtlR(E108S) (E. coli, UniProt P0AF10 1-195, E108S); assay: pull-down; His-MtlR (200 μg) mixed with 20 μl of EI-overproducing cell lysate, 200 μg of HPr, 2 mM MgCl2 and 50 μl of Talon resin, in the absence or presence of 2 mM PEP; SDS-PAGE, Coomassie; conditions: both partners purified
T1 construct: Mannitol operon repressor MtlR of E. coli, made by site-directed mutagenesis of pET-HisMtlR; also called E108S single mutant
T1 sequence: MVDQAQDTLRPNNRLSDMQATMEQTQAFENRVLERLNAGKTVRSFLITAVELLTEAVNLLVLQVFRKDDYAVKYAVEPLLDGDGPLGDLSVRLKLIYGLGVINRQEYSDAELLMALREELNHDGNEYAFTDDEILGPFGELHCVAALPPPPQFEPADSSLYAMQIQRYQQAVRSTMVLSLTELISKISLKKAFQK

His-MtlR(A115W) = target: T2, His-MtlR(A115W) (E. coli, UniProt P0AF10 1-195, A115W); assay: pull-down; His-MtlR (200 μg) mixed with HPr (200 μg) in 20 mM Tris-HCl pH 7.5, 50 mM NaCl, 2 mM β-mercaptoethanol, 5% glycerol; Talon metal affinity chromatography, 3 washes with 10 mM imidazole, elution with 150 mM imidazole; SDS-PAGE, Coomassie; conditions: both partners purified
T2 construct: Mannitol operon repressor MtlR of E. coli, made by site-directed mutagenesis of pET-HisMtlR; also called A115W mutant of His-tagged ecMtlR
T2 sequence: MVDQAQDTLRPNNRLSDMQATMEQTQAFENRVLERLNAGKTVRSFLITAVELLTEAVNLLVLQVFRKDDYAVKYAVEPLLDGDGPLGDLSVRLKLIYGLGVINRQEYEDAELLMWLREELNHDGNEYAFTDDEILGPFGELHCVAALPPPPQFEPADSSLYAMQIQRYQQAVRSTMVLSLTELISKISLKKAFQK

His-MtlR(L112W) = target: T3, His-MtlR(L112W) (E. coli, UniProt P0AF10 1-195, Leu112 was mutated to Trp); assay: as above; conditions: both partners purified
T3 construct: Mannitol operon repressor MtlR of E. coli, made by site-directed mutagenesis of pET-HisMtlR; also called Leu112 mutated to Trp
T3 sequence: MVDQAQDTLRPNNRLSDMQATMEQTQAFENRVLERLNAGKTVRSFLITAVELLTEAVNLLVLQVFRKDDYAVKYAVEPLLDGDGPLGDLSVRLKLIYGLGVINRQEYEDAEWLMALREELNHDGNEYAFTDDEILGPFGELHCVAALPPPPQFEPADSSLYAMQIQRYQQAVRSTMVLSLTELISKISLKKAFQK

His-MtlR(E140S) [3] = target: T4, His-MtlR(E140S) (E. coli, UniProt P0AF10 1-195, E140S); assay: as above; conditions: both partners purified
T4 construct: Mannitol operon repressor MtlR of E. coli, made by site-directed mutagenesis of pET-HisMtlR; also called E140S single mutant
T4 sequence: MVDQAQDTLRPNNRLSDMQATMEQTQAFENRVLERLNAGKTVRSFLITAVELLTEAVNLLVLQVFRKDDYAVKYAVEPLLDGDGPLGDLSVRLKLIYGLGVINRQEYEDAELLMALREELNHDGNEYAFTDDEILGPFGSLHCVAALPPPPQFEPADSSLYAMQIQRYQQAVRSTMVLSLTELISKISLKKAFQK

[4] = target: the molecule itself; assay: SEC-MALS; Superdex 200 increase 5/150 GL, binding buffer as mobile phase, 0.2 ml/min; HisMtlR alone (40 μg) and in complex with HPr (60 μg); concentration by refractive index
[5] = target: B2; assay: MST; Monolith NT.115; serial dilutions of MtlR variants mixed 1:1 with NT-647-labelled HPr; 20 mM Tris-HCl pH 7.5, 50 mM NaCl, 2 mM β-mercaptoethanol, 0.05% BSA, 0.05% Tween-20, 5% glycerol; conditions: both partners purified
His-MtlR(E108S) [6] = target: T1, His-MtlR(E108S); assay: as above; conditions: both partners purified
His-MtlR(E140S) [7] = target: T4, His-MtlR(E140S); assay: as above; conditions: both partners purified

B1: E. coli histidine phosphocarrier protein HPr (dephosphorylated, untagged) (natural protein)
chain: not shown
notes: Histidine phosphocarrier protein HPr of E. coli, 9 kDa; Untagged; probably the whole protein (9 kDa); also called ecHPr; source: E. coli, overexpressed, purified (MonoQ, Superdex 75); for the complex overexpressed in E. coli GI698 harboring pSP100 and co-purified with MtlR
binding result [1]: binds
binding result (His-MtlR(E108S) [2]): binds
binding result (His-MtlR(A115W)): binds
binding result (His-MtlR(L112W)): binds
binding result (His-MtlR(E140S) [3]): binds

B2
stoichiometry N [4]: 2

B3: E. coli HPr labelled with the dye NT-647 (natural protein)
chain: not shown
modifications: dye NT-647 coupled by N-hydroxysuccinimide (NHS) to lysine residues
notes: Histidine phosphocarrier protein HPr of E. coli, 9 kDa; Same protein as m2, fluorescently labelled for microscale thermophoresis; also called labeled HPr; source: E. coli, overexpressed, purified (MonoQ, Superdex 75), then labelled with NT-647-NHS
Kd [5]: ~21 nM
Kd (His-MtlR(E108S) [6]): 1420 ± 80 nM
Kd (His-MtlR(E140S) [7]): 1530 ± 110 nM
